Patent US20090239794A1, “HCV F PROTEIN AND USES THEREOF” (priority 2004, published 2009)

What was measured:
[1] = molecular target: Fmut8Δ11 protein (recombinant ARFP (hepatitis C virus subtype 1a (HCV-1a)) (UniProt P0C045)); assay: ELISA Control 4: ARFP, no first antibody, secondary alone; row 1/50
[2] = molecular target: Fmut8Δ11 protein (recombinant ARFP, truncated HCV-1a F protein lacking the first 11 N-terminal amino acids) (HCV-1a) (UniProt P0C045); assay: ELISA Control 4: ARFP, no serum, secondary antibody alone; row 1/50
[3] = molecular target: Fmut8Δ11 protein (recombinant ARFP (hepatitis C virus subtype 1a (HCV-1a)) (UniProt P0C045)); assay: ELISA Control 4: ARFP, no first antibody, secondary alone; row 1/100
[4] = molecular target: Fmut8Δ11 protein (recombinant ARFP (hepatitis C virus subtype 1a (HCV-1a)) (UniProt P0C045)); assay: ELISA Control 4: ARFP, no first antibody, secondary alone; row 1/200
[5] = molecular target: Fmut8Δ11 protein (recombinant ARFP (hepatitis C virus subtype 1a (HCV-1a)) (UniProt P0C045)); assay: ELISA Control 4: ARFP, no first antibody, secondary alone; row 1/400
[6] = molecular target: Fmut8Δ11 protein (recombinant ARFP (hepatitis C virus subtype 1a (HCV-1a)) (UniProt P0C045)); assay: ELISA Control 4: ARFP, no first antibody, secondary alone; row 1/800
[7] = molecular target: Fmut8Δ11 protein (recombinant ARFP, truncated HCV-1a F protein lacking the first 11 N-terminal amino acids) (HCV-1a) (UniProt P0C045); assay: ELISA Control 4: ARFP, no serum, secondary antibody alone; row 1/100
[8] = molecular target: Fmut8Δ11 protein (recombinant ARFP, truncated HCV-1a F protein lacking the first 11 N-terminal amino acids) (HCV-1a) (UniProt P0C045); assay: ELISA Control 4: ARFP, no serum, secondary antibody alone; row 1/200
[9] = molecular target: Fmut8Δ11 protein (recombinant ARFP, truncated HCV-1a F protein lacking the first 11 N-terminal amino acids) (HCV-1a) (UniProt P0C045); assay: ELISA Control 4: ARFP, no serum, secondary antibody alone; row 1/400
[10] = molecular target: Fmut8Δ11 protein (recombinant ARFP, truncated HCV-1a F protein lacking the first 11 N-terminal amino acids) (HCV-1a) (UniProt P0C045); assay: ELISA Control 4: ARFP, no serum, secondary antibody alone; row 1/800
[11] = molecular target: Fmut8Δ11 protein (recombinant ARFP (hepatitis C virus subtype 1a (HCV-1a)) (UniProt P0C045)); assay: ELISA Control 4: ARFP, no first antibody, secondary alone; row 1/1600
[12] = molecular target: Fmut8Δ11 protein (recombinant ARFP, truncated HCV-1a F protein lacking the first 11 N-terminal amino acids) (HCV-1a) (UniProt P0C045); assay: ELISA Control 4: ARFP, no serum, secondary antibody alone; row 1/1600
[13] = molecular target: Fmut8Δ11 protein (recombinant ARFP, truncated HCV-1a F protein lacking the first 11 N-terminal amino acids) (HCV-1a) (UniProt P0C045); assay: ELISA, serum 1/50, day 14
[14] = molecular target: Fmut8Δ11 protein (recombinant ARFP, truncated HCV-1a F protein lacking the first 11 N-terminal amino acids) (HCV-1a) (UniProt P0C045); assay: ELISA, serum 1/50, day 29
[15] = molecular target: Fmut8Δ11 protein (recombinant ARFP, truncated HCV-1a F protein lacking the first 11 N-terminal amino acids) (HCV-1a) (UniProt P0C045); assay: ELISA, serum 1/50, day 52
[16] = molecular target: Fmut8Δ11 protein (recombinant ARFP, truncated HCV-1a F protein lacking the first 11 N-terminal amino acids) (HCV-1a) (UniProt P0C045); assay: ELISA, serum 1/100, day 14
[17] = molecular target: Fmut8Δ11 protein (recombinant ARFP, truncated HCV-1a F protein lacking the first 11 N-terminal amino acids) (HCV-1a) (UniProt P0C045); assay: ELISA, serum 1/100, day 29
[18] = molecular target: Fmut8Δ11 protein (recombinant ARFP, truncated HCV-1a F protein lacking the first 11 N-terminal amino acids) (HCV-1a) (UniProt P0C045); assay: ELISA, serum 1/100, day 52
[19] = molecular target: Fmut8Δ11 protein (recombinant ARFP, truncated HCV-1a F protein lacking the first 11 N-terminal amino acids) (HCV-1a) (UniProt P0C045); assay: ELISA, serum 1/200, day 14
[20] = molecular target: Fmut8Δ11 protein (recombinant ARFP, truncated HCV-1a F protein lacking the first 11 N-terminal amino acids) (HCV-1a) (UniProt P0C045); assay: ELISA, serum 1/200, day 29
[21] = molecular target: Fmut8Δ11 protein (recombinant ARFP, truncated HCV-1a F protein lacking the first 11 N-terminal amino acids) (HCV-1a) (UniProt P0C045); assay: ELISA, serum 1/200, day 52
[22] = molecular target: Fmut8Δ11 protein (recombinant ARFP, truncated HCV-1a F protein lacking the first 11 N-terminal amino acids) (HCV-1a) (UniProt P0C045); assay: ELISA, serum 1/400, day 14
[23] = molecular target: Fmut8Δ11 protein (recombinant ARFP, truncated HCV-1a F protein lacking the first 11 N-terminal amino acids) (HCV-1a) (UniProt P0C045); assay: ELISA, serum 1/400, day 29
[24] = molecular target: Fmut8Δ11 protein (recombinant ARFP, truncated HCV-1a F protein lacking the first 11 N-terminal amino acids) (HCV-1a) (UniProt P0C045); assay: ELISA, serum 1/400, day 52
[25] = molecular target: Fmut8Δ11 protein (recombinant ARFP, truncated HCV-1a F protein lacking the first 11 N-terminal amino acids) (HCV-1a) (UniProt P0C045); assay: ELISA, serum 1/800, day 14
[26] = molecular target: Fmut8Δ11 protein (recombinant ARFP, truncated HCV-1a F protein lacking the first 11 N-terminal amino acids) (HCV-1a) (UniProt P0C045); assay: ELISA, serum 1/800, day 29
[27] = molecular target: Fmut8Δ11 protein (recombinant ARFP, truncated HCV-1a F protein lacking the first 11 N-terminal amino acids) (HCV-1a) (UniProt P0C045); assay: ELISA, serum 1/800, day 52
[28] = molecular target: Fmut8Δ11 protein (recombinant ARFP, truncated HCV-1a F protein lacking the first 11 N-terminal amino acids) (HCV-1a) (UniProt P0C045); assay: ELISA, serum 1/1600, day 14
[29] = molecular target: Fmut8Δ11 protein (recombinant ARFP, truncated HCV-1a F protein lacking the first 11 N-terminal amino acids) (HCV-1a) (UniProt P0C045); assay: ELISA, serum 1/1600, day 29
[30] = molecular target: Fmut8Δ11 protein (recombinant ARFP, truncated HCV-1a F protein lacking the first 11 N-terminal amino acids) (HCV-1a) (UniProt P0C045); assay: ELISA, serum 1/1600, day 52

Question: What does the source list for “AP conjugated goat anti-mouse Ig [G, A, M] (antibody)”?
Answer: OD410 [1]: 0.194 OD410; OD410 [2]: 0.131; OD410 [3]: 0.127 OD410; OD410 [4]: 0.106 OD410; OD410 [5]: 0.11 OD410; OD410 [6]: 0.109 OD410; OD410 [7]: 0.129; OD410 [8]: 0.108; OD410 [9]: 0.111; OD410 [10]: 0.112; OD410 [11]: 0.109 OD410; OD410 [12]: 0.111

Question: What does the source list for “serum of mouse 28, protocol 2, mock immunization (PBS) (antibody)”?
Answer: OD410 [13]: 0.261; OD410 [14]: 0.354; OD410 [15]: 0.165; OD410 [16]: 0.179; OD410 [17]: 0.204; OD410 [18]: 0.141; OD410 [19]: 0.146; OD410 [20]: 0.167; OD410 [21]: 0.117; OD410 [22]: 0.133; OD410 [23]: 0.143; OD410 [24]: 0.119; OD410 [25]: 0.122; OD410 [26]: 0.128; OD410 [27]: 0.107; OD410 [28]: 0.114; OD410 [29]: 0.128; OD410 [30]: 0.123
